The supplement of paper PMC9112550, “Optimization of the antimicrobial peptide Bac7 by deep mutational scanning” (BMC Biology, 2022)

Tested on: Escherichia coli TOP10
Assay: shrunken log2 fold change of peptide-encoding DNA abundance (4.5 h post-induction vs induction); higher = less antimicrobial activity (less host growth inhibition)
Conditions: time post-induction: 4.5 h; library: site-saturation at positions 5, 18, 19, 20
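Note: peptides expressed intracellularly from a pBAD plasmid library in pooled LB shake-flask culture, induced with 0.3% L-arabinose, DNA abundance read by NGS, three biological replicates, DESeq2 with apeglm shrinkage.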

Sequence	shrunken log2 fold change
RRIRHRPPRLPRPRPRPQCMPRP	-0.123
RRIRKRPPRLPRPRPRPCLKPRP	-0.0379
RRIRERPPRLPRPRPRPFKPPRP	-0.22
RRIRPRPPRLPRPRPRPSFMPRP	-0.377
RRIRFRPPRLPRPRPRPQYNPRP	-1.05
RRIRMRPPRLPRPRPRPVQYPRP	0.0273
RRIRERPPRLPRPRPRPFCEPRP	-0.0162
RRIRVRPPRLPRPRPRPRAEPRP	0.677
RRIRDRPPRLPRPRPRPIHFPRP	-0.0728
RRIRNRPPRLPRPRPRPMQDPRP	-0.0611
RRIRGRPPRLPRPRPRPPKHPRP	0.567
RRIRDRPPRLPRPRPRPQYYPRP	0.003
RRIRIRPPRLPRPRPRPPHIPRP	-0.542
RRIRERPPRLPRPRPRPVWVPRP	0.0145
RRIRDRPPRLPRPRPRPQKPPRP	-0.00349
RRIRYRPPRLPRPRPRPGYPPRP	-0.299
RRIRMRPPRLPRPRPRPLIYPRP	-0.0335
RRIRTRPPRLPRPRPRPTHYPRP	0.282
RRIRWRPPRLPRPRPRPALKPRP	0.0103
RRIRRRPPRLPRPRPRPSLWPRP	0.293
RRIRDRPPRLPRPRPRPQFKPRP	-0.0159
RRIRYRPPRLPRPRPRPWRMPRP	-0.369
RRIRVRPPRLPRPRPRPSSFPRP	-0.423
RRIRHRPPRLPRPRPRPLCYPRP	-0.737
RRIRSRPPRLPRPRPRPAIVPRP	0.385

Sequence	shrunken log2 fold change
RRIRTRPPRLPRPRPRPKFMPRP	-0.0326
RRIRYRPPRLPRPRPRPWVSPRP	-0.013
RRIRARPPRLPRPRPRPIMQPRP	-0.0531
RRIRGRPPRLPRPRPRPLTRPRP	0.803
RRIRGRPPRLPRPRPRPRCRPRP	0.957
RRIRERPPRLPRPRPRPLVWPRP	0.339
RRIRGRPPRLPRPRPRPVELPRP	0.354
RRIRWRPPRLPRPRPRPFQFPRP	-0.198
RRIRGRPPRLPRPRPRPLVTPRP	1.2
RRIRFRPPRLPRPRPRPVKQPRP	-0.0303
RRIRGRPPRLPRPRPRPIEAPRP	0.377
RRIRLRPPRLPRPRPRPSYNPRP	-0.588
RRIRWRPPRLPRPRPRPVEYPRP	-0.00674
RRIRSRPPRLPRPRPRPTGCPRP	0.159
RRIRYRPPRLPRPRPRPQIDPRP	0.0753
RRIRSRPPRLPRPRPRPSRWPRP	0.188
RRIRQRPPRLPRPRPRPMMKPRP	-0.0269
RRIRLRPPRLPRPRPRPLPTPRP	0.293
RRIRPRPPRLPRPRPRPYITPRP	-0.739
RRIRWRPPRLPRPRPRPLRVPRP	0.874
RRIRERPPRLPRPRPRPKFCPRP	-0.267
RRIRTRPPRLPRPRPRPSSKPRP	-0.201
RRIRERPPRLPRPRPRPKQKPRP	-0.0338
RRIRTRPPRLPRPRPRPGPKPRP	0.152
RRIRGRPPRLPRPRPRPLPCPRP	0.51

Sequence	shrunken log2 fold change
RRIRIRPPRLPRPRPRPLMYPRP	-0.513
RRIRARPPRLPRPRPRPEAGPRP	1.5
RRIRERPPRLPRPRPRPYDDPRP	-0.341
RRIRTRPPRLPRPRPRPDLMPRP	-0.121
RRIRPRPPRLPRPRPRPHEGPRP	0.0172
RRIRVRPPRLPRPRPRPCSGPRP	-0.0235
RRIRERPPRLPRPRPRPTNQPRP	-0.414
RRIRQRPPRLPRPRPRPIWFPRP	-0.000433
RRIRTRPPRLPRPRPRPCSGPRP	-0.307
RRIRSRPPRLPRPRPRPANLPRP	-0.0937
RRIRPRPPRLPRPRPRPCVNPRP	-0.0713
RRIRCRPPRLPRPRPRPICGPRP	0.289
RRIRDRPPRLPRPRPRPGYEPRP	-0.0119
RRIRIRPPRLPRPRPRPYSRPRP	-0.0136
RRIRKRPPRLPRPRPRPNFRPRP	0.155
RRIRFRPPRLPRPRPRPEIMPRP	-0.269
RRIRTRPPRLPRPRPRPCFKPRP	-0.362
RRIRPRPPRLPRPRPRPFCTPRP	-0.00789
RRIRQRPPRLPRPRPRPDLCPRP	-0.00719
RRIRLRPPRLPRPRPRPRHDPRP	0.0303
RRIRMRPPRLPRPRPRPVNQPRP	-0.0449
RRIRCRPPRLPRPRPRPATGPRP	0.201
RRIRKRPPRLPRPRPRPHHVPRP	-0.348
RRIRFRPPRLPRPRPRPVDIPRP	-0.338
RRIRWRPPRLPRPRPRPAEVPRP	0.204
